Measured values: CN113975385A (dated 2022)

Molecular target: T1, human CD20 on Raji cells (human, UniProt P11836 1-297)
T1 construct: whole, on cells; also called Raji (CD20+/CD3-细胞)
T1 sequence (looked up): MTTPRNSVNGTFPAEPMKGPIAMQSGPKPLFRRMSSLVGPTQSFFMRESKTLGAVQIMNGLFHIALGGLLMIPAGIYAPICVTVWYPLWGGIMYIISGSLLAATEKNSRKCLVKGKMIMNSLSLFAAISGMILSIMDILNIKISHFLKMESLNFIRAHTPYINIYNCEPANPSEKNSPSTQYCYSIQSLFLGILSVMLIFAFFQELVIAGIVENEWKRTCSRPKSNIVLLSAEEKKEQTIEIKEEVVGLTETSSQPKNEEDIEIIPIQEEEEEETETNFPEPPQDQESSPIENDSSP
Assay: FACS, simultaneous binding: Calcein-AM Raji and FarRed Jurkat cells mixed 1:1, percent double-positive cells

- binding result: binds
B1: W3278-U2T3.F18R-1.uIgG4.SP (bispecific antibody)
chain 1: QVQLQQPGAELVKPGASVKMSCKASGYTFTSYNMHWVKQTPGRGLEWIGAIYPGNGDTSYNQKFKGKATLTADKSSSTAYMQLSSLTSEDSAVYYCARSTYYGGDWYFNVWGAGTTVTVSAASTKGPSVFPLAPCSRSTSESTAALGCLVKDYFPEPVTVSWNSGALTSGVHTFPAVLQSSGLYSLSSVVTVPSSSLGTKTYTCNVDHKPSNTKVDKRVGGGGSGGGGSQVQLVQSGAEVKKPGSSVKVSCKASGFAFTDYYIHWVRQAPGQGLEWMGWISPGNVNTKYNENFKGRVTITADKSTSTAYMELSSLRSEDTAVYYCARDGYSLYYFDYWGQGTLVTVLEDLKNVFPPEVAVFEPSEAEISHTQKATLVCLATGFYPDHVELSWWVNGKEVHSGVCTDPQPLKEQPALQDSRYALSSRLRVSATFWQNPRNHFRCQVQFYGLSENDEWTQDRAKPVTQIVSAEAWGRYGPPCPPCPAPEFLGGPSVFLFPPKPKDTLMISRTPEVTCVVVDVSQEDPEVQFNWYVDGVEVHNAKTKPREEQFNSTYRVVSVLTVLHQDWLNGKEYKCKVSNKGLPSSIEKTISKAKGQPREPQVYTLPPCQEEMTKNQVSLWCLVKGFYPSDIAVEWESNGQPENNYKTTPPVLDSDGSFFLYSRLTVDKSRWQEGNVFSCSVMHEALHNHYTQKSLSLSLG
chain 2: QVQLQQPGAELVKPGASVKMSCKASGYTFTSYNMHWVKQTPGRGLEWIGAIYPGNGDTSYNQKFKGKATLTADKSSSTAYMQLSSLTSEDSAVYYCARSTYYGGDWYFNVWGAGTTVTVSAASTKGPSVFPLAPCSRSTSESTAALGCLVKDYFPEPVTVSWNSGALTSGVHTFPAVLQSSGLYSLSSVVTVPSSSLGTKTYTCNVDHKPSNTKVDKRVESKYGPPCPPCPAPEFLGGPSVFLFPPKPKDTLMISRTPEVTCVVVDVSQEDPEVQFNWYVDGVEVHNAKTKPREEQFNSTYRVVSVLTVLHQDWLNGKEYKCKVSNKGLPSSIEKTISKAKGQPREPQVCTLPPSQEEMTKNQVSLSCAVKGFYPSDIAVEWESNGQPENNYKTTPPVLDSDGSFFLVSRLTVDKSRWQEGNVFSCSVMHEALHNHYTQKSLSLSLG
chain 3: QIVLSQSPAILSASPGEKVTMTCRASSSVSYIHWFQQKPGSSPKPWIYATSNLASGVPVRFSGSGSGTSYSLTISRVEAEDAATYYCQQWTSNPPTFGGGTKLEIKRTVAAPSVFIFPPSDEQLKSGTASVVCLLNNFYPREAKVQWKVDNALQSGNSQESVTEQDSKDSTYSLSSTLTLSKADYEKHKVYACEVTHQGLSSPVTKSFNRGEC
light: DIVMTQSPDSLAVSLGERATINCKSSQSLLNSRTRKNYLAWYQQKPGQPPKLLIYWASTRQSGVPDRFSGSGSGTDFTLTISSLQAEDVAVYYCTQSHTLRTFGGGTKVEIKPDIQNPDPAVYQLRDSKSSDKSVCLFTDFDSQTQVSQSKDSDVYITDKCVLDMRSMDFKSNSAVAWSQKSDFACANAFQNSIIPEDTFFPSPESS
notes: WuXiBody format F18R-1, human IgG4 with S228P and knobs-into-holes; also called WBP3278 lead Ab; W3278 lead Ab
